One experiment deals with T1, GFP-Sec13, P55735.
T1 chain: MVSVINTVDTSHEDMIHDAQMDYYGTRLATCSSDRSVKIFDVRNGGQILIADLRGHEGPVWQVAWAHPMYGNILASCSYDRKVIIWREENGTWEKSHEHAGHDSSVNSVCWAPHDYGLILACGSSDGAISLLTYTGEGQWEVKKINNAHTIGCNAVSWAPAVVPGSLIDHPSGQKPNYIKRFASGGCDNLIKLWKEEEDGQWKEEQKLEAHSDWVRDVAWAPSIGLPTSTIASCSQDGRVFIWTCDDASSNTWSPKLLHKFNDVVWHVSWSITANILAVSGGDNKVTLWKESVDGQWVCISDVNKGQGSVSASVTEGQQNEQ
Kind of experiment: co-immunoprecipitation and western blotting. Particulars: chain shown with the change;; parent: 0.8.

Experiment [1] deals with GFP-tagged Sec23, Q15436. Kind of experiment: co-immunoprecipitation (anti-GFP beads) and western blotting, mean of three experiments. Particulars: chain shown with the change; HEK293 cells co-transfected; parent: est. 1.0; read off a plot.
Chain of GFP-tagged Sec23, Q15436 (Q15436 whole entry): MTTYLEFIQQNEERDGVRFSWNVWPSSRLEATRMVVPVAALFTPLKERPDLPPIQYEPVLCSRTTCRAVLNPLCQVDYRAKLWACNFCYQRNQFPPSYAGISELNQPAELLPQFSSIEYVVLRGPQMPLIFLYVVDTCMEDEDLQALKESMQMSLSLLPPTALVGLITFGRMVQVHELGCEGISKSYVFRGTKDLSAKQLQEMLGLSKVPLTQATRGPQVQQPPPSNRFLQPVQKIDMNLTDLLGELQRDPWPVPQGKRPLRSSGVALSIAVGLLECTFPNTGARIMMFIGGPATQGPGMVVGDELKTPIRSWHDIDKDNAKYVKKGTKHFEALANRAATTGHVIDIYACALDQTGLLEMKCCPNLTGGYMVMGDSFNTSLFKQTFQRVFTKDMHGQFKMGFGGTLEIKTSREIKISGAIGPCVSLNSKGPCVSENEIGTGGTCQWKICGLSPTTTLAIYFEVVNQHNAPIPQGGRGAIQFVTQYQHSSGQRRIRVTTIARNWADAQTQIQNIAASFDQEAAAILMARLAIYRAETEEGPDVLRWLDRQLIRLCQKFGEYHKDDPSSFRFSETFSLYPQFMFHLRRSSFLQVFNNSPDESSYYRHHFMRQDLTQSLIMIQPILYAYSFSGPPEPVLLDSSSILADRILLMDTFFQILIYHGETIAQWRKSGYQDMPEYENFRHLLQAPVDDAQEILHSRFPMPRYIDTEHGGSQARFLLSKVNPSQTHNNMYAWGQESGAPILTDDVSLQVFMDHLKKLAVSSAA
In experiment [2] the target is GFP-tagged Sec23, Q15436. Kind of experiment: co-immunoprecipitation (anti-GFP beads) and western blotting, single blot quantified. Particulars: chain shown with the change; HEK293 cells co-transfected; parent: 1.

B1: FLAG-tagged wild type (WT) Sec31, O94979 S527A (protein)
chain: MKLKEVDRTAMQAWSPAQNHPIYLATGTSAQQLDATFSTNASLEIFELDLSDPSLDMKSCATFSSSHRYHKLIWGPYKMDSKGDVSGVLIAGGENGNIILYDPSKIIAGDKEVVIAQNDKHTGPVRALDVNIFQTNLVASGANESEIYIWDLNNFATPMTPGAKTQPPEDISCIAWNRQVQHILASASPSGRATVWDLRKNEPIIKVSDHSNRMHCSGLAWHPDVATQMVLASEDDRLPVIQMWDLRFASSPLRVLENHARGILAIAWSMADPELLLSCGKDAKILCSNPNTGEVLYELPTNTQWCFDIQWCPRNPAVLSAASFDGRISVYSIMGGSTDGLRQKQVDKLSSSFGNLDPFGTGQPLPPLQIPQQTAQHSIVLPLKKPPKWIRRPVGASFSFGGKLVTFENVRMPSHQGAEQQQQQHHVFISQVVTEKEFLSRSDQLQQAVQSQGFINYCQKKIDASQTEFEKNVWSFLKVNFEDDSRGKYLELLGYRKEDLGKKIALALNKVDGANVALKDSDQVAQADGEESPAAEEQLLGEHIKEEKEESEFLPSSGGTFNISVSGDIDGLITQALLTGNFESAVDLCLHDNRMADAIILAIAGGQELLARTQKKYFAKSQSKITRLITAVVMKNWKEIVESCDLKNWREALAAVLTYAKPDEFSALCDLLGTRLENEGDSLLQTQACLCYICAGNVEKLVACWTKAQDGSHPLSLQDLIEKVVILRKAVQLTQAMDTSTVGVLLAAKMSQYANLLAAQGSIAAALAFLPDNTNQPNIMQLRDRLCRAQGEPVAGHESPKIPYEKQQLPKGRPGPVAGHHQMPRVQTQQYYPHGENPPPPGFIMHGNVNPNAAGQLPTSPGHMHTQVPPYPQPQPYQPAQPYPFGTGGSAMYRPQQPVAPPTSNAYPNTPYISSASSYTGQSQLYAAQHQASSPTSSPATSFPPPPSSGASFQHGGPGAPPSSSAYALPPGTTGTLPAASELPASQRTGPQNGWNDPPALNRVPKKKKMPENFMPPVPITSPIMNPLGDPQSQMLQQQPSAPVPLSSQSSFPQPHLPGGQPFHGVQQPLGQTGMPPSFSKPNIEGAPGAPIGNTFQHVQSLPTKKITKKPIPDEHLILKTTFEDLIQRCLSSATDPQTKRKLDDASKRLEFLYDKLREQTLSPTITSGLHNIARSIETRNYSEGLTMHTHIVSTSNFSETSAFMPVLKVVLTQANKLGV
As to B1, the other: normalized ratio of co-IP'ed Sec31 with GFP-Sec13, P55735 is 1. Besides, the ratio to parent in the experiment with GFP-tagged Sec23, Q15436 [1] amounted to 0.9; with GFP-tagged Sec23, Q15436 [2], 1.

B2: FLAG-tagged wild type (WT) Sec31, O94979 S527A; S799A; T1165A (protein)
chain: MKLKEVDRTAMQAWSPAQNHPIYLATGTSAQQLDATFSTNASLEIFELDLSDPSLDMKSCATFSSSHRYHKLIWGPYKMDSKGDVSGVLIAGGENGNIILYDPSKIIAGDKEVVIAQNDKHTGPVRALDVNIFQTNLVASGANESEIYIWDLNNFATPMTPGAKTQPPEDISCIAWNRQVQHILASASPSGRATVWDLRKNEPIIKVSDHSNRMHCSGLAWHPDVATQMVLASEDDRLPVIQMWDLRFASSPLRVLENHARGILAIAWSMADPELLLSCGKDAKILCSNPNTGEVLYELPTNTQWCFDIQWCPRNPAVLSAASFDGRISVYSIMGGSTDGLRQKQVDKLSSSFGNLDPFGTGQPLPPLQIPQQTAQHSIVLPLKKPPKWIRRPVGASFSFGGKLVTFENVRMPSHQGAEQQQQQHHVFISQVVTEKEFLSRSDQLQQAVQSQGFINYCQKKIDASQTEFEKNVWSFLKVNFEDDSRGKYLELLGYRKEDLGKKIALALNKVDGANVALKDSDQVAQADGEESPAAEEQLLGEHIKEEKEESEFLPSSGGTFNISVSGDIDGLITQALLTGNFESAVDLCLHDNRMADAIILAIAGGQELLARTQKKYFAKSQSKITRLITAVVMKNWKEIVESCDLKNWREALAAVLTYAKPDEFSALCDLLGTRLENEGDSLLQTQACLCYICAGNVEKLVACWTKAQDGSHPLSLQDLIEKVVILRKAVQLTQAMDTSTVGVLLAAKMSQYANLLAAQGSIAAALAFLPDNTNQPNIMQLRDRLCRAQGEPVAGHEAPKIPYEKQQLPKGRPGPVAGHHQMPRVQTQQYYPHGENPPPPGFIMHGNVNPNAAGQLPTSPGHMHTQVPPYPQPQPYQPAQPYPFGTGGSAMYRPQQPVAPPTSNAYPNTPYISSASSYTGQSQLYAAQHQASSPTSSPATSFPPPPSSGASFQHGGPGAPPSSSAYALPPGTTGTLPAASELPASQRTGPQNGWNDPPALNRVPKKKKMPENFMPPVPITSPIMNPLGDPQSQMLQQQPSAPVPLSSQSSFPQPHLPGGQPFHGVQQPLGQTGMPPSFSKPNIEGAPGAPIGNTFQHVQSLPTKKITKKPIPDEHLILKTTFEDLIQRCLSSATDPQTKRKLDDASKRLEFLYDKLREQTLSPAITSGLHNIARSIETRNYSEGLTMHTHIVSTSNFSETSAFMPVLKVVLTQANKLGV
Turning to B2, the other: normalized ratio of co-IP'ed Sec31 with GFP-Sec13, P55735 was found to be 1.4. For the same molecule, the ratio to parent came out at 2.3 with GFP-tagged Sec23, Q15436 [1] and 2.3 with GFP-tagged Sec23, Q15436 [2].

B3: FLAG-tagged wild type (WT) Sec31, O94979 S527A; S799A (protein)
chain: MKLKEVDRTAMQAWSPAQNHPIYLATGTSAQQLDATFSTNASLEIFELDLSDPSLDMKSCATFSSSHRYHKLIWGPYKMDSKGDVSGVLIAGGENGNIILYDPSKIIAGDKEVVIAQNDKHTGPVRALDVNIFQTNLVASGANESEIYIWDLNNFATPMTPGAKTQPPEDISCIAWNRQVQHILASASPSGRATVWDLRKNEPIIKVSDHSNRMHCSGLAWHPDVATQMVLASEDDRLPVIQMWDLRFASSPLRVLENHARGILAIAWSMADPELLLSCGKDAKILCSNPNTGEVLYELPTNTQWCFDIQWCPRNPAVLSAASFDGRISVYSIMGGSTDGLRQKQVDKLSSSFGNLDPFGTGQPLPPLQIPQQTAQHSIVLPLKKPPKWIRRPVGASFSFGGKLVTFENVRMPSHQGAEQQQQQHHVFISQVVTEKEFLSRSDQLQQAVQSQGFINYCQKKIDASQTEFEKNVWSFLKVNFEDDSRGKYLELLGYRKEDLGKKIALALNKVDGANVALKDSDQVAQADGEESPAAEEQLLGEHIKEEKEESEFLPSSGGTFNISVSGDIDGLITQALLTGNFESAVDLCLHDNRMADAIILAIAGGQELLARTQKKYFAKSQSKITRLITAVVMKNWKEIVESCDLKNWREALAAVLTYAKPDEFSALCDLLGTRLENEGDSLLQTQACLCYICAGNVEKLVACWTKAQDGSHPLSLQDLIEKVVILRKAVQLTQAMDTSTVGVLLAAKMSQYANLLAAQGSIAAALAFLPDNTNQPNIMQLRDRLCRAQGEPVAGHEAPKIPYEKQQLPKGRPGPVAGHHQMPRVQTQQYYPHGENPPPPGFIMHGNVNPNAAGQLPTSPGHMHTQVPPYPQPQPYQPAQPYPFGTGGSAMYRPQQPVAPPTSNAYPNTPYISSASSYTGQSQLYAAQHQASSPTSSPATSFPPPPSSGASFQHGGPGAPPSSSAYALPPGTTGTLPAASELPASQRTGPQNGWNDPPALNRVPKKKKMPENFMPPVPITSPIMNPLGDPQSQMLQQQPSAPVPLSSQSSFPQPHLPGGQPFHGVQQPLGQTGMPPSFSKPNIEGAPGAPIGNTFQHVQSLPTKKITKKPIPDEHLILKTTFEDLIQRCLSSATDPQTKRKLDDASKRLEFLYDKLREQTLSPTITSGLHNIARSIETRNYSEGLTMHTHIVSTSNFSETSAFMPVLKVVLTQANKLGV
Turning to B3, the other: normalized ratio of co-IP'ed Sec31 with GFP-Sec13, P55735 amounted to 1.2.

B4: FLAG-tagged wild type (WT) Sec31, O94979 S799A (protein)
chain: MKLKEVDRTAMQAWSPAQNHPIYLATGTSAQQLDATFSTNASLEIFELDLSDPSLDMKSCATFSSSHRYHKLIWGPYKMDSKGDVSGVLIAGGENGNIILYDPSKIIAGDKEVVIAQNDKHTGPVRALDVNIFQTNLVASGANESEIYIWDLNNFATPMTPGAKTQPPEDISCIAWNRQVQHILASASPSGRATVWDLRKNEPIIKVSDHSNRMHCSGLAWHPDVATQMVLASEDDRLPVIQMWDLRFASSPLRVLENHARGILAIAWSMADPELLLSCGKDAKILCSNPNTGEVLYELPTNTQWCFDIQWCPRNPAVLSAASFDGRISVYSIMGGSTDGLRQKQVDKLSSSFGNLDPFGTGQPLPPLQIPQQTAQHSIVLPLKKPPKWIRRPVGASFSFGGKLVTFENVRMPSHQGAEQQQQQHHVFISQVVTEKEFLSRSDQLQQAVQSQGFINYCQKKIDASQTEFEKNVWSFLKVNFEDDSRGKYLELLGYRKEDLGKKIALALNKVDGANVALKDSDQVAQSDGEESPAAEEQLLGEHIKEEKEESEFLPSSGGTFNISVSGDIDGLITQALLTGNFESAVDLCLHDNRMADAIILAIAGGQELLARTQKKYFAKSQSKITRLITAVVMKNWKEIVESCDLKNWREALAAVLTYAKPDEFSALCDLLGTRLENEGDSLLQTQACLCYICAGNVEKLVACWTKAQDGSHPLSLQDLIEKVVILRKAVQLTQAMDTSTVGVLLAAKMSQYANLLAAQGSIAAALAFLPDNTNQPNIMQLRDRLCRAQGEPVAGHEAPKIPYEKQQLPKGRPGPVAGHHQMPRVQTQQYYPHGENPPPPGFIMHGNVNPNAAGQLPTSPGHMHTQVPPYPQPQPYQPAQPYPFGTGGSAMYRPQQPVAPPTSNAYPNTPYISSASSYTGQSQLYAAQHQASSPTSSPATSFPPPPSSGASFQHGGPGAPPSSSAYALPPGTTGTLPAASELPASQRTGPQNGWNDPPALNRVPKKKKMPENFMPPVPITSPIMNPLGDPQSQMLQQQPSAPVPLSSQSSFPQPHLPGGQPFHGVQQPLGQTGMPPSFSKPNIEGAPGAPIGNTFQHVQSLPTKKITKKPIPDEHLILKTTFEDLIQRCLSSATDPQTKRKLDDASKRLEFLYDKLREQTLSPTITSGLHNIARSIETRNYSEGLTMHTHIVSTSNFSETSAFMPVLKVVLTQANKLGV
With B4, the other: normalized ratio of co-IP'ed Sec31 in the experiment with GFP-Sec13, P55735 came out at 1. The ratio to parent with GFP-tagged Sec23, Q15436 [1] amounted to 1.5; with GFP-tagged Sec23, Q15436 [2], 1.4.
